The values that follow come from patent US20180022822A1, “NOVEL ANTI-FIBROBLAST ACTIVATION PROTEIN (FAP) BINDING AGENTS AND USES THEREOF” (Mabimmune Diagnostics AG, priority 2016, published 2018).

For test [1], the target named is T1, recombinant human FAP (sFAP, FAP) versus CD26 and unrelated human antigens (A-N) (Homo sapiens, UniProt Q12884).
T1 sequence (Q12884 26-760 limits assumed): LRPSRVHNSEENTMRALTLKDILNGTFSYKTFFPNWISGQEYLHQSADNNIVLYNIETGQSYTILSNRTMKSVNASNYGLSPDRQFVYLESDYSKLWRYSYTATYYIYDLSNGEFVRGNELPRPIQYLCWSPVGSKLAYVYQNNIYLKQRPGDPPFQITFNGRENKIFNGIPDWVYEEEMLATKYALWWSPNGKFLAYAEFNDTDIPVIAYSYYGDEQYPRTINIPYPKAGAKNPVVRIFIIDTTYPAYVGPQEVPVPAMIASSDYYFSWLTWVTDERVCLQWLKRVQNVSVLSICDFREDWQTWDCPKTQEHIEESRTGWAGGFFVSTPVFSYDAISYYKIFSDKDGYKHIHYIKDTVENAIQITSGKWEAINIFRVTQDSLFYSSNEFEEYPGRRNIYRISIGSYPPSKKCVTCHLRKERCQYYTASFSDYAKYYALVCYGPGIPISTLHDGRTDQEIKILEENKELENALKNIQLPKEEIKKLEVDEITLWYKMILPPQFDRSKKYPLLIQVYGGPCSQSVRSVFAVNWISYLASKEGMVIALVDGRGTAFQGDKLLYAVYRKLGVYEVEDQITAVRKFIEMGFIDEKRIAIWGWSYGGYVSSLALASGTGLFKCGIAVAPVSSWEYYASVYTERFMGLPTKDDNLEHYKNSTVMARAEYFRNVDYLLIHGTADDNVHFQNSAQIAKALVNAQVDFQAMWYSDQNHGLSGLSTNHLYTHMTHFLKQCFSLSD
In words: binding specificity ELISA against FAP versus unrelated human antigens. Conditions: detection antibody at 20, 4 and 0.8 nM. On the procedure:
A mouse anti-6×-histidine tag antibody (Clonetech) was coated at a concentration of 3 μg/ml in PBS to a 96 well ELISA plate, the plates were then blocked with 5% BSA in PBS, and enzymatically active recombinant human FAP with an N-terminus 6× histidine tag was added to the plates to be captured. The binding efficiency of NI-206.82C2, NI-206.18H2, NI-206.20A8 and NI-206.6D3 (at 20 nM, 4 nM, and 0.8 nM) against sFAP and of NI-206.18H2, NI-206.20A8 and NI-206.6D3 against FAP as well was then tested by 1 hour incubation, followed by washing with PBS and detection with an HRP-labelled goat anti-human antibody (Jackson Immunoresearch) using a colormetric assay. To assess NI-206.82C2, NI-206.18H2, NI-206.20A8 and NI-206.6D3 binding other targets, recombinant human CD26 (only in case of NI-206.82C2) and fourteen other unrelated recombinant human proteins (A-N) were individually added to a 96-well ELISA plate in triplicate, and the binding efficacy of NI-206.82C2 was evaluated. (FIG. 7A to D)
On the technique in general: ELISA stands for enzyme-linked immunosorbent assay.

Test [2] concerns the target T2, transmembrane human FAP on FAP expressing HEK293 cells (Homo sapiens, UniProt Q12884).
T2 construct: HEK293 cells were transduced with retrovirus encoding full length human FAP cDNA; host or cells: HEK293 (retroviral transduction, G418 selected)
T2 sequence (Q12884 1-760): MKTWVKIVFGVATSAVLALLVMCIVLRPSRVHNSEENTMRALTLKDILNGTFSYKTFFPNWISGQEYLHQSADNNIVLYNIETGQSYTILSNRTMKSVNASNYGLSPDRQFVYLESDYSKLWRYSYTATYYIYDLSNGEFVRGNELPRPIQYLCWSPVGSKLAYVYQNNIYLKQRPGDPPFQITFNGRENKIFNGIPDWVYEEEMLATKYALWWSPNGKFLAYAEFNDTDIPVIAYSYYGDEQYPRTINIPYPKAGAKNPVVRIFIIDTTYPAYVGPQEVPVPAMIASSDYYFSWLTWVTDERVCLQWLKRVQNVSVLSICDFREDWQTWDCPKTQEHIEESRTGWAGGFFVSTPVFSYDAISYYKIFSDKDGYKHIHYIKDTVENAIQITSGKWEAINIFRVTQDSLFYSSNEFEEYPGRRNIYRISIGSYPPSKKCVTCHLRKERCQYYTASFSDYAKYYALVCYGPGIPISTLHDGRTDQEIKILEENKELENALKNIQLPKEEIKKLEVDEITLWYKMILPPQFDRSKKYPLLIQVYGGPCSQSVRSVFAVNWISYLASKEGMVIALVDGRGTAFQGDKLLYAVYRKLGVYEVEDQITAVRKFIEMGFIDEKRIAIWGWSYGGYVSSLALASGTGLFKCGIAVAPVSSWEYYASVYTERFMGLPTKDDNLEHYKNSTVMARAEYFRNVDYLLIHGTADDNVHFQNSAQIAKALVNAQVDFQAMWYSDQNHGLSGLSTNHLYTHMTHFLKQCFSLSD
In words: flow cytometry of Cy5 labelled antibodies on FAP-HEK293 cells in pH adjusted PBS. The note with it: pH 7.4 to 6.2; 0.1-100 nM Cy5 labelled antibody. It counts as cell-based. The method, then: To evaluate the binding of NI-206.82C2, NI-206.59B4, NI-206.27E8, NI-206.12G4, NI-206.18H2 and NI-206.6D3 to transmembrane human FAP, an FAP expressing HEK293 cell line was received from the National Institutes of Health, Bethesda, Md. The generation of this FAP expressing HEK293 cells is described in: J. Exp. Med. 2013 Vol. 210 No. 6 1125-1135. HEK293 cells were transduced with retrovirus encoding full length human FAP cDNA. Cloning was performed using Fast Cloning Pack and FastDigest restriction enzymes (both from Fermentas). Transient retroviral supernatants were generated by transfecting 293GP cells with the FAP plasmid using Lipofectamine 2000 (Invitrogen). Retroviral supernatants were collected at 48 h after transfection and centrifuged onto Retronectin-coated (10 μg/ml; Takara), non-tissue culture-treated 6-well plates at 2,000 G for 2 h at 32° C. These retroviral supernatants where then used to transduce HEK293 cells overnight. Transduced FAP-HEK293 cells were selected with 1 mg/ml G418 (CellGro).
500′000 FAP-HEK293 cells were incubated for 1 hr at 4° C. either with Cy5 labelled NI-206.82C2, NI-206.59B4, NI-206.27E8, NI-206.12G4, NI-206.18H2 or NI-206.6D3 or with Cy5 labelled 43A11 at four different antibody concentrations (0.1, 1, 10, and 100 nM) in seven different pH-adjusted PBS buffers (pH 7.4, 6.8, 6.6, 6.5, 6.4, 6.3 and 6.2). PBS buffers were adjusted to using MES monohydrate (Sigma Aldrich). Following incubation, cells were washed 3 times with 200 uL in matched pH-adjusted PBS, spun at 400G for 4 min, and resuspended in 200 μL of pH adjusted buffer.
To analyze antibody binding, fluorescent activated flow cytometry was performed using a BD Fortesa device for forward scatter, side scatter, and the mean fluorescent intensity (MFI) of the Cy5 channel was recorded using a […] laser excitation and 600/20 filter. Viable cells were gated by forward and side scatter, and singlets/doublet exclusion, and the MFI for Cy5 was quantified using FlowJo software Version 10.1.
A general note: Flow cytometry measures light scatter and fluorescence of single cells or particles in a stream.

B1: NI-206.82C2: human-derived recombinant anti-FAP antibody; VH SEQ ID NO: 2 or 4 (PIMC), VL SEQ ID NO: 6 (antibody, V domains shown)
VH: QVQLQQSGPGLVKPSQTLSLTCAISGDSVSSNSVTWNWIRQSPSRGLEWLGRTYYRSKWYNDYAVSVKGRITINPDTSKNQFYLQLKSVTPEDAAVYYCARDSSILYGDYWGQGTLVTVSS
VL: QAVLTQPSSLSASPGASASLTCTLPSGINVGTYRIFWFQQKPGSPPQYLLSYKSDSDNHQGSGVPSRFSGSKDASANAGILLISGLQSEDEADYYCMIWHSSAWVFGGGTKLTVL
B1: the “colorimetric ELISA signal against FAP versus panel of unrelated human antigens” value in test [1] was “significantly greater”. The “paratope-specific avidity (ΔMFI) under acidic conditions vs. at pH 7.4” value in test [2] is given as “increased”.

B2: NI-206.6D3: human-derived recombinant anti-FAP antibody; VH SEQ ID NO: 49, VL SEQ ID NO: 51 (antibody, listed as Homo sapiens, V domains shown)
VH: EVQLVESGGGLVKPGESLRLSCAASGFTFSKAWMNWVRQGPGKGLEWVGRVKSKTDGGTTDYAAPVKGRFTISRDDSKDTVFLQMNSLKTEDTAVYYCSIQFIVVGDRGRDDQYMDVWGKGTTVTVSS
VL: SYVLTQPPSVSVSPGQTARITCSGDALPKQYAFWYQQKPGQAPVIMIYKDNQRPSGIPERFSGSSSGTTVTLTISGVQTEDEADYYCQSADSTNTHVVFGGGTKLTVL
With B2, the “colorimetric ELISA signal against FAP versus panel of unrelated human antigens” value in test [1] was “significantly greater”. The “paratope-specific avidity (ΔMFI) under acidic conditions vs. at pH 7.4” value in test [2] is reported as “increased”.

B3: NI-206.18H2: human-derived recombinant anti-FAP antibody; VH SEQ ID NO: 41, VL SEQ ID NO: 43 (antibody, listed as Homo sapiens, V domains shown)
VH: QVQLQESGPRLVKPSETLSLTCTVSGYSISNGYYWGWIRQPPGQGLEWIASVWHSGNTYHNPSLKSRVTILVDTLKNQFSLNLKSVTAADTALYYCARSYTRNDVGAFETWGQGTMVTVSS
VL: SYELTQPPSVSVSPGQTARIACSGDELPKRYAYWYQQKSGQAPVLVMYEDTKRPSGIPERLSGSSSGTVTTLTISGAQVEDEADYYCYSTAPSGNHTFVFGTGTRVTVL
For B3, the “colorimetric ELISA signal against FAP versus panel of unrelated human antigens” value in test [1] was “significantly greater”. Besides, the “paratope-specific avidity (ΔMFI) under acidic conditions vs. at pH 7.4” value in test [2] is recorded as “increased”.
